Experimental data published in patent US20190092862A1 (GENERON SHANGHAI, published 2019).

B1: ITAB1002 (exemplary EpCAM×CD3 Fab fusion protein) (bispecific antibody)
heavy: EVQLVESGGGLVQPGGSLRLSCAASGFTFSNYWMSWVRQAPGKGLEWVANIKQDGSEKFYADSVKGRFTISRDNAKNSLYLQMNSLRAEDTAVYYCARVGPSWEQDYWGQGTLVTVSAGGGGSGGGGSGGGGSGAQSVLTQPPSVSGAPGQRVTISCTGSSSNIGSYYGVHWYQQLPGTAPKLLIYSDTNRPSGVPDRFSGSKSGTSASLAITGLQAEDEADYYCQSYDKGFGHRVFGGGTKLTVLGGEVQLVESGGGLVQPGGSLRLSCAASGFTFNTYAMNWVRQAPGKGLEWVARIRSKYNNYATYYADSVKDRFTISRDDSKNTLYLQMNSLRAEDTAVYYCVRHGNFGNSYVSWFAYWGQGTMVTVSSASTKGPSVFPLAPSSKSTSGGTAALGCLVKDYFPEPVTVSWNSGALTSGVHTFPAVLQSSGLYSLSSVVTVPSSSLGTQTYICNVNHKPSNTKVDKKVEPKSCPPCS
light: EVQLVESGGGLVQPGGSLRLSCAASGFTFSNYWMSWVRQAPGKGLEWVANIKQDGSEKFYADSVKGRFTISRDNAKNSLYLQMNSLRAEDTAVYYCARVGPSWEQDYWGQGTLVTVSAGGGGSGGGGSGGGGSGAQSVLTQPPSVSGAPGQRVTISCTGSSSNIGSYYGVHWYQQLPGTAPKLLIYSDTNRPSGVPDRFSGSKSGTSASLAITGLQAEDEADYYCQSYDKGFGHRVFGGGTKLTVLGGQAVVTQEPSLTVSPGGTVTLTCRSSTGAVTTSNYANWVQQKPGQAPRGLIGGTNKRAPGTPARFSGSLLGGKAALTLSGVQPEDEAEYYCALWYSNLWVFGGGTKLTVLGQPKAAPSVTLFPPSSEELQANKATLVCLISDFYPGAVTVAWKADSSPVKAGVETTTPSKQSNNKYAASSYLSLTPEQWKSHRSYSCQVTHEGSTVEKTVAPTECPPCS
notes: An anti-EpCAM scFv is fused to the N-terminus of each chain of an anti-CD3 Fab; there is no Fc; also called EpCAM x CD3 Fab fusion protein; ITB1002
B2: ITAB1012 (EpCAM×CD3 Fab fusion protein with a different EpCAM scFv) (bispecific antibody)
heavy: EVQLVESGGGLVQPGGSLRLSCAASGFTFSNYWMSWVRQAPGKGLEWVANIKQDGSEKFYVDSVKGRFTISRDNAKNSLYLQMNSLRAEDMAVYYCARVGGAWELGYWGQGTLVTVSAGGGGSGGGGSGGGGSGAQSVLTQPPSVSGAPGQRVTISCTGSSSNIGSYYGVHWYQQLPGTAPKLLIYSDTNRPSGVPDRFSGSKSGTSASLAITGLQAEDEADYYCQSYDSSLSGRVFGGGTKLTVLGGEVQLVESGGGLVQPGGSLRLSCAASGFTFNTYAMNWVRQAPGKGLEWVARIRSKYNNYATYYADSVKDRFTISRDDSKNTLYLQMNSLRAEDTAVYYCVRHGNFGNSYVSWFAYWGQGTMVTVSSASTKGPSVFPLAPSSKSTSGGTAALGCLVKDYFPEPVTVSWNSGALTSGVHTFPAVLQSSGLYSLSSVVTVPSSSLGTQTYICNVNHKPSNTKVDKKVEPKSCPPCS
light: EVQLVESGGGLVQPGGSLRLSCAASGFTFSNYWMSWVRQAPGKGLEWVANIKQDGSEKFYVDSVKGRFTISRDNAKNSLYLQMNSLRAEDMAVYYCARVGGAWELGYWGQGTLVTVSAGGGGSGGGGSGGGGSGAQSVLTQPPSVSGAPGQRVTISCTGSSSNIGSYYGVHWYQQLPGTAPKLLIYSDTNRPSGVPDRFSGSKSGTSASLAITGLQAEDEADYYCQSYDSSLSGRVFGGGTKLTVLGGQAVVTQEPSLTVSPGGTVTLTCRSSTGAVTTSNYANWVQQKPGQAPRGLIGGTNKRAPGTPARFSGSLLGGKAALTLSGVQPEDEAEYYCALWYSNLWVFGGGTKLTVLGQPKAAPSVTLFPPSSEELQANKATLVCLISDFYPGAVTVAWKADSSPVKAGVETTTPSKQSNNKYAASSYLSLTPEQWKSHRSYSCQVTHEGSTVEKTVAPTECPPCS
notes: Its EpCAM scFv has different HVRs from that of ITAB1002; It has the same anti-CD3 Fab and was transiently expressed; also called EpCAMA×CD3 Fab fusion protein

Columns and labels:
[1] = target: T1, human EpCAM on SW480 cells (human, UniProt P16422 24-314); assay: flow cytometry on SW480 cells expressing human EpCAM
T1 construct: whole, on cells; also called SW480 cells expressing human EpCAM; human colon cancer cell line SW480
T1 sequence (looked up): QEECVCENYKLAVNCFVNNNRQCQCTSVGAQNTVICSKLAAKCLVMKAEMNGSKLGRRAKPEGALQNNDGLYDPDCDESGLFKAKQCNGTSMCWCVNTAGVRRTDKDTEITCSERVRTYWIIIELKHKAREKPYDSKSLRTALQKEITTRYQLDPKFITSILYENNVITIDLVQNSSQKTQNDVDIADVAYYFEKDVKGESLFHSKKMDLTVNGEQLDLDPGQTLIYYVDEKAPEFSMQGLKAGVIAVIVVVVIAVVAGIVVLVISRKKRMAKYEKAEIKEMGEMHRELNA
Experimental: (§1) SW480 cells and CyEpCAM-CHO cells were trypsinized with 0.25% Trypsin-EDTA (Gibco), resuspended with a FACS buffer. […] Cells were then washed with the FACS buffer and resuspended in 50 μL FACS buffer. Mouse anti-Human IgG Fab Secondary Antibody PE conjugate(Invitrogen) were added, and allowed for incubation at 4° C. for 30 min. 150 μL FACS buffer was finally added, and the samples were analyzed using ACCURI® C6 Cytometer (BD Biosciences).

[2] = target: T2, huEpCAM.Fc (human EpCAM antigen construct) (human, UniProt P16422 24-265, limits assumed); assay: BLI (Octet QKe), antigen-Fc captured on AHC biosensor
T2 construct: not shown: human IgG Fc
T2 sequence (looked up): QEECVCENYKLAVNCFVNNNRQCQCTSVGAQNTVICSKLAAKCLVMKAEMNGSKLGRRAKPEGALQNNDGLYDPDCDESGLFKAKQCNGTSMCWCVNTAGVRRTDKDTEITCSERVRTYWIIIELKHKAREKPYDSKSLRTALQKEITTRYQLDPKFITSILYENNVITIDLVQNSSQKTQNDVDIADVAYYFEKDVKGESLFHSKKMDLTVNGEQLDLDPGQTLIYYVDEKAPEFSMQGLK
Experimental: (§2) The expressions of the antigen constructs is described in U.S. Pat. No. 8,846,042. The antigen constructs were diluted to 0.02 mg/mL with dilution(PBS, 0.1% BSA, 0.02% Tween-20, 0.05% NaN3), and then immobilized on an anti-hIgG Fc capture (AHC) biosensor. […] The control wells containing only PBS were also set up. The detection results were analyzed using ForteBio Data Acquisition and ForteBio Data Analysis software.

[3] = target: T3, cynomolgus monkey EpCAM on transfected CHO cells (CyEpCAM-CHO) (cynomolgus monkey); assay: flow cytometry on CHO cells expressing cynomolgus monkey EpCAM (CyEpCAM-CHO)
T3 construct: whole, on cells; also called CHO cells expressing cynomolgus monkey EpCAM on the cell surface
T3 sequence (Q1WER1 24-314): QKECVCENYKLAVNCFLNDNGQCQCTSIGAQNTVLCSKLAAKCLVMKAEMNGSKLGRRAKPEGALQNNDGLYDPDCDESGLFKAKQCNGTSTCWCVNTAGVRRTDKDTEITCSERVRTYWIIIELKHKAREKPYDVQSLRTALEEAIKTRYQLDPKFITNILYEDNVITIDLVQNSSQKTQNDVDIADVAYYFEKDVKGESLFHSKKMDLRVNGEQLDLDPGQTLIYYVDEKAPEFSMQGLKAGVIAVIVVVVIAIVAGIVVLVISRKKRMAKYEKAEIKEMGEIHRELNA
Experimental: as §1

[4] = target: T2, huEpCAM.Fc (human EpCAM antigen …); assay: BLI (Octet QKe), antigen-Fc captured on AHC biosensor, ITAB1002 in solution
Experimental: as §2

[5] = target: cynoEpCAM.Fc (cynomolgus EpCAM antigen construct) (cynomolgus monkey; human); assay: as above
Experimental: as §2

[6] = target: T4, cynoCD3ε AA 1-27.Fc (cynomolgus CD3 antigen construct) (cynomolgus monkey; human, UniProt Q95LI5 22-48); assay: as above
T4 construct: range 1-27; not shown: human IgG Fc
T4 chain (looked up): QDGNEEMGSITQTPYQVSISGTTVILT
Experimental: as §2

human CD3 on human PBMC = target: T5, human CD3 on human PBMC (human, UniProt P07766 23-207); assay: flow cytometry (FACS) on human PBMC, detection with PE mouse anti-human lambda light chain, co-staining with CD4 antibody; y axis Binding rate (%)
T5 construct: whole, on cells; also called hPBMC; huPBMC
T5 sequence (P07766 23-207): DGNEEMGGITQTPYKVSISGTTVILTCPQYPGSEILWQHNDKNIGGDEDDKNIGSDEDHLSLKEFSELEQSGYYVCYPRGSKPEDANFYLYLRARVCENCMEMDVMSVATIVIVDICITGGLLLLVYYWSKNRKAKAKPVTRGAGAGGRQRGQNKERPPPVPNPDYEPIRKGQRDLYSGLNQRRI
Experimental: Cells were washed with the FACS buffer once, resuspended in 50 μL FACS buffer, supplemented with CD4 Antibody (RFT-4g) APC-Cy7® conjugate(Invitrogen) and PE Mouse Anti-Human Light Chain […], (BD Pharmingen™), and incubated at room temperature for 45 min. 150 μL FACS buffer was finally added, and the samples were analyzed using ACCURI® C6 Cytometer (BD Biosciences).

| Binder | EC50 [1] | Kd [2] | koff [2] | kon [2] | EC50 [3] | Kd [4] | Kd [5] | Kd [6] | EC50 (read off the curve) (human CD3 on human PBMC) |
| --- | --- | --- | --- | --- | --- | --- | --- | --- | --- |
| B1 | 0.411 µg/mL | 2.49 nM | 4.98e-05 s⁻¹ | 20000 M⁻¹ s⁻¹ | 0.108 µg/mL | 3.49 nM | 4.71 nM | 15.6 nM | ~0.1 µg/mL |
| B2 |  | 47.8 nM | 0.00647 s⁻¹ | 135000 M⁻¹ s⁻¹ |  |  |  |  |  |
